Target: T1, mCherry-BARD1 (UniProt Q99728 1-777)
T1 construct: also called BRCA1 Associated RING Domain 1; source: HeLa, transfected, in live cells and in lysate
T1 sequence (looked up): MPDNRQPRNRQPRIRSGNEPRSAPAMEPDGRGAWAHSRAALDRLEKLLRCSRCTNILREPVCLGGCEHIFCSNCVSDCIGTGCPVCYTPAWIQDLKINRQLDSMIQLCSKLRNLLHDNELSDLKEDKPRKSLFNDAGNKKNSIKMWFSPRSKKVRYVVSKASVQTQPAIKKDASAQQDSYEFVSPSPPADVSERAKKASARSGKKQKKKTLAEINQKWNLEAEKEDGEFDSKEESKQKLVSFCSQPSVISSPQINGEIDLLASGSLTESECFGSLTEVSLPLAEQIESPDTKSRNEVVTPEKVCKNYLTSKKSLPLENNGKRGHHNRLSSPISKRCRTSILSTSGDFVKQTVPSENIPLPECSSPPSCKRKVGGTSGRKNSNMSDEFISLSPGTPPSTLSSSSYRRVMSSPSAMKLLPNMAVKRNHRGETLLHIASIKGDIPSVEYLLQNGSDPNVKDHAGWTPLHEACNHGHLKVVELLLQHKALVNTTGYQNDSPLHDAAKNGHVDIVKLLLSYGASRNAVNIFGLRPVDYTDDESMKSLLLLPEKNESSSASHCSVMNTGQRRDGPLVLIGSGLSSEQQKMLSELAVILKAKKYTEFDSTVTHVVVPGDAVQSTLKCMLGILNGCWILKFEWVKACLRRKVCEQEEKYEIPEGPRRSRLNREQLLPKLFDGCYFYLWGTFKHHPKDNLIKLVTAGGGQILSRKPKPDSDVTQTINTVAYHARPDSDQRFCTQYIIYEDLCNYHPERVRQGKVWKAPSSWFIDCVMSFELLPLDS
Test: fluorescence cross-correlation spectroscopy (FCCS); GFP- and mCherry-tagged proteins co-expressed in live HeLa cells; focal volume in the nucleoplasm (MSH2-MSH6 also in the cytoplasm); room temperature; cross-correlation/autocorrelation ratio
Settings: partners not purified

reduction in binding relative to wild type: ~50%
B1: GFP-BRCA1-C44F (natural protein, UniProt P38398 1-1863, looked up)
chain: MDLSALRVEEVQNVINAMQKILECPICLELIKEPVSTKCDHIFFKFCMLKLLNQKKGPSQCPLCKNDITKRSLQESTRFSQLVEELLKIICAFQLDTGLEYANSYNFAKKENNSPEHLKDEVSIIQSMGYRNRAKRLLQSEPENPSLQETSLSVQLSNLGTVRTLRTKQRIQPQKTSVYIELGSDSSEDTVNKATYCSVGDQELLQITPQGTRDEISLDSAKKAACEFSETDVTNTEHHQPSNNDLNTTEKRAAERHPEKYQGSSVSNLHVEPCGTNTHASSLQHENSSLLLTKDRMNVEKAEFCNKSKQPGLARSQHNRWAGSKETCNDRRTPSTEKKVDLNADPLCERKEWNKQKLPCSENPRDTEDVPWITLNSSIQKVNEWFSRSDELLGSDDSHDGESESNAKVADVLDVLNEVDEYSGSSEKIDLLASDPHEALICKSERVHSKSVESNIEDKIFGKTYRKKASLPNLSHVTENLIIGAFVTEPQIIQERPLTNKLKRKRRPTSGLHPEDFIKKADLAVQKTPEMINQGTNQTEQNGQVMNITNSGHENKTKGDSIQNEKNPNPIESLEKESAFKTKAEPISSSISNMELELNIHNSKAPKKNRLRRKSSTRHIHALELVVSRNLSPPNCTELQIDSCSSSEEIKKKKYNQMPVRHSRNLQLMEGKEPATGAKKSNKPNEQTSKRHDSDTFPELKLTNAPGSFTKCSNTSELKEFVNPSLPREEKEEKLETVKVSNNAEDPKDLMLSGERVLQTERSVESSSISLVPGTDYGTQESISLLEVSTLGKAKTEPNKCVSQCAAFENPKGLIHGCSKDNRNDTEGFKYPLGHEVNHSRETSIEMEESELDAQYLQNTFKVSKRQSFAPFSNPGNAEEECATFSAHSGSLKKQSPKVTFECEQKEENQGKNESNIKPVQTVNITAGFPVVGQKDKPVDNAKCSIKGGSRFCLSSQFRGNETGLITPNKHGLLQNPYRIPPLFPIKSFVKTKCKKNLLEENFEEHSMSPEREMGNENIPSTVSTISRNNIRENVFKEASSSNINEVGSSTNEVGSSINEIGSSDENIQAELGRNRGPKLNAMLRLGVLQPEVYKQSLPGSNCKHPEIKKQEYEEVVQTVNTDFSPYLISDNLEQPMGSSHASQVCSETPDDLLDDGEIKEDTSFAENDIKESSAVFSKSVQKGELSRSPSPFTHTHLAQGYRRGAKKLESSEENLSSEDEELPCFQHLLFGKVNNIPSQSTRHSTVATECLSKNTEENLLSLKNSLNDCSNQVILAKASQEHHLSEETKCSASLFSSQCSELEDLTANTNTQDPFLIGSSKQMRHQSESQGVGLSDKELVSDDEERGTGLEENNQEEQSMDSNLGEAASGCESETSVSEDCSGLSSQSDILTTQQRDTMQHNLIKLQQEMAELEAVLEQHGSQPSNSYPSIISDSSALEDLRNPEQSTSEKAVLTSQKSSEYPISQNPEGLSADKFEVSADSSTSKNKEPGVERSSPSKCPSLDDRWYMHSCSGSLQNRNYPSQEELIKVVDVEEQQLEESGPHDLTETSYLPRQDLEGTPYLESGISLFSDDPESDPSEDRAPESARVGNIPSSTSALKVPQLKVAESAQSPAAAHTTDTAGYNAMEESVSREKPELTASTERVNKRMSMVVSGLTPEEFMLVYKFARKHHITLTNLITEETTHVVMKTDAEFVCERTLKYFLGIAGGKWVVSYFWVTQSIKERKMLNEHDFEVRGDVVNGRNHQGPKRARESQDRKIFRGLEICCYGPFTNMPTDQLEWMVQLCGASVVKELSSFTLGTGVHPIVVVQPDAWTEDNGFHAIGQMCEAPVVTREWVLDSVALYQCQELDTYLIPQIPHSHY
notes: also called p.Cys44Phe; source: HeLa, transfected, in live cells
